Reference: the supplement of paper PMC10065799, “High-throughput profiling of sequence recognition by tyrosine kinases and SH2 domains using bacterial peptide display” (eLife, 2023)

Key:
Grb2 SH2 = Grb2 SH2 (UniProt P62993); experiment: SH2 binding enrichment of the phosphorylated peptide, bacterial display (enrichment ratio); higher = better substrate or ligand; peptides without Tyr show the background
SHP2-C SH2 = experiment: as above
c-Src SH2 = experiment: as above
AncSZ = experiment: phosphorylation enrichment, bacterial display (enrichment ratio); higher = better substrate or ligand; peptides without Tyr show the background
Jak2 = Jak2 (UniProt O60674); experiment: as above
EPHB1 = EPHB1 (UniProt P54762); experiment: as above
EPHB2 = EPHB2 (UniProt P29323); experiment: as above
Fer (mouse) = experiment: as above
Fyn = Fyn (UniProt P06241); experiment: as above
FGFR1 = FGFR1 (UniProt P11362); experiment: as above
MERTK = MERTK (UniProt Q12866); experiment: as above
FGFR3 = FGFR3 (UniProt P22607); experiment: as above
Fes = Fes (UniProt P07332); experiment: as above
c-Src = experiment: as above
c-Abl (mouse) = experiment: as above
Hck = Hck (UniProt P08631); experiment: as above
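Wherever SH2 binding enrichment of the phosphorylated peptide, bacterial display is given: peptide library displayed on the E. coli surface as eCPX fusions, selected cells deep-sequenced, score is each peptide's frequency after selection divided by its frequency in the input.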
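Wherever phosphorylation enrichment, bacterial display is given: 11-residue human phosphosite peptides and single-mutation variants displayed on the E. coli surface, counted by deep sequencing, each peptide's frequency after selection divided by its frequency in the unselected input library; frequency after pTyr selection over input frequency; kinase dosed for 20-30% of maximal phosphorylation in three min.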

FGFR3, sequence (P22607 whole entry, looked up): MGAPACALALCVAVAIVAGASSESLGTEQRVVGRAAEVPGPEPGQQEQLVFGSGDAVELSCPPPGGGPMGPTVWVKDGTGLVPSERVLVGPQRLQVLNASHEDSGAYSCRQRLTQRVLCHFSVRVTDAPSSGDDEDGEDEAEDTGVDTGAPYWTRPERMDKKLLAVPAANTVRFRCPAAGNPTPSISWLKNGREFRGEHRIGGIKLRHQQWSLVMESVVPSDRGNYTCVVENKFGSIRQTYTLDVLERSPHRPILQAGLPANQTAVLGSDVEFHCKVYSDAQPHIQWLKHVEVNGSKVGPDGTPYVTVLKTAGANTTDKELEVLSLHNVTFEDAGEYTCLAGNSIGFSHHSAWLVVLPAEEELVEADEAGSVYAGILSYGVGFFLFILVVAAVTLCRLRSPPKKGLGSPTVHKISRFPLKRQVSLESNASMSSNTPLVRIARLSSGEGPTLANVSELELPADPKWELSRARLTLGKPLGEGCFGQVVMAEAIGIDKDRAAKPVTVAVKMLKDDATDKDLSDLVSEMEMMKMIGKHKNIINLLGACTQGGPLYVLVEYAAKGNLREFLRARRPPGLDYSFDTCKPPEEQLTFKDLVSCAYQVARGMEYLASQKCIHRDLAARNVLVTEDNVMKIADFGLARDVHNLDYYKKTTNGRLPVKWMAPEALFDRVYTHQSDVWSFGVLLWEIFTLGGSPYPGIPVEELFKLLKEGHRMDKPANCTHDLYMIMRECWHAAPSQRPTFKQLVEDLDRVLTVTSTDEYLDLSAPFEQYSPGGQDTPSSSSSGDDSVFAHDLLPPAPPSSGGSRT
Jak2, sequence (O60674 whole entry, looked up): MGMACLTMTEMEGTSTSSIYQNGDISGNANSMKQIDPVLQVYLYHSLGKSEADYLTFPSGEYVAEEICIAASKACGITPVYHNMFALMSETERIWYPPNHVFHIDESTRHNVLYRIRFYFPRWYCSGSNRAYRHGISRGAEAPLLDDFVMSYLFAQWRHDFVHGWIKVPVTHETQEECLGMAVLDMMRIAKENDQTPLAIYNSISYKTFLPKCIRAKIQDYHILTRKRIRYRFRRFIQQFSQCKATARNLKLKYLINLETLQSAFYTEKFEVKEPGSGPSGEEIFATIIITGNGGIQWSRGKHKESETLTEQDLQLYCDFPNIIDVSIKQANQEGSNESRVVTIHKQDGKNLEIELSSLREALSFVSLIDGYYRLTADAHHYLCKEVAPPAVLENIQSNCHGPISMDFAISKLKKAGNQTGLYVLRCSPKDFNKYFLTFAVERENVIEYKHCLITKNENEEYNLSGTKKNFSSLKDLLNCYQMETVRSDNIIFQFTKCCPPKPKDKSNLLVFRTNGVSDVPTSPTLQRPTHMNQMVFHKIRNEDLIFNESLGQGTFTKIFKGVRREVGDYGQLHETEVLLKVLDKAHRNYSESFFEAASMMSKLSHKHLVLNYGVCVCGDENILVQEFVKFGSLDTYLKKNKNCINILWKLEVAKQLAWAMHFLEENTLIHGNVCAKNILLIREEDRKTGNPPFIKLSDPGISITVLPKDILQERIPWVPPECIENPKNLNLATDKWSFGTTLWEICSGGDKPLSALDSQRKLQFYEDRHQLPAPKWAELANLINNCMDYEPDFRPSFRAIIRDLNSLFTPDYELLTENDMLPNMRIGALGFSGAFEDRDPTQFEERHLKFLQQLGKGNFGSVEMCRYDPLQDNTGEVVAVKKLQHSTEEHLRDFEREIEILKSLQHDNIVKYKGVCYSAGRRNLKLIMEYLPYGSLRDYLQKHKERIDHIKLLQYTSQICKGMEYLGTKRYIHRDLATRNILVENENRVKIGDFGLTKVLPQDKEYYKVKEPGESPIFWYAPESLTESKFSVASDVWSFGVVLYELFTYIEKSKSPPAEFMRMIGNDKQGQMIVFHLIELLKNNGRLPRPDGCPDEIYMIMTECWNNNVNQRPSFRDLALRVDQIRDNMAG
MERTK, sequence (Q12866 whole entry, looked up): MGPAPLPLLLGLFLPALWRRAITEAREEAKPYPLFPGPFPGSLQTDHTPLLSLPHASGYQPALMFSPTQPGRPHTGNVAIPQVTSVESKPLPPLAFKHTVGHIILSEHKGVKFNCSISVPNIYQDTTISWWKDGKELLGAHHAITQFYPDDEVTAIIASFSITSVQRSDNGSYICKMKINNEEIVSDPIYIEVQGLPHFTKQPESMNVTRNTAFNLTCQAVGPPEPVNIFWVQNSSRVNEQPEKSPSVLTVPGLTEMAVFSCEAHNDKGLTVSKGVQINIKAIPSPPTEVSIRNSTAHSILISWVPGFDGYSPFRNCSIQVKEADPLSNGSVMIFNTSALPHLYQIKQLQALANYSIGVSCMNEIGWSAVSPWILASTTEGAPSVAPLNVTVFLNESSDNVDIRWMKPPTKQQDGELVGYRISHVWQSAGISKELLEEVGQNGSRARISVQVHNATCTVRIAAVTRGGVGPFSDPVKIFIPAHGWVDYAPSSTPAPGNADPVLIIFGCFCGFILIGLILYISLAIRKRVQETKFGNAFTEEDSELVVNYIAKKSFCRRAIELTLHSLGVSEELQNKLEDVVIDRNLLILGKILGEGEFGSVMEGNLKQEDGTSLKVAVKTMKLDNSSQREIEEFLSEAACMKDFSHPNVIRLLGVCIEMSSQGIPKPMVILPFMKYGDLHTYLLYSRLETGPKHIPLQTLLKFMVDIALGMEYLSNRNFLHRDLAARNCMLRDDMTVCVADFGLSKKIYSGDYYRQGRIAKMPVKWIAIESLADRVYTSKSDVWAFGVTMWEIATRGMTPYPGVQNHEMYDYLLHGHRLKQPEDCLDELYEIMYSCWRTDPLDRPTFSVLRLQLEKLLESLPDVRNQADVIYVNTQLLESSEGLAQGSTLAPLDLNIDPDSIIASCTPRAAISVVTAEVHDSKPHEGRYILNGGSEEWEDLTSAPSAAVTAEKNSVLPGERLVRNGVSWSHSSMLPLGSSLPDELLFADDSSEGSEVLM
EPHB1, sequence (P54762 whole entry, looked up): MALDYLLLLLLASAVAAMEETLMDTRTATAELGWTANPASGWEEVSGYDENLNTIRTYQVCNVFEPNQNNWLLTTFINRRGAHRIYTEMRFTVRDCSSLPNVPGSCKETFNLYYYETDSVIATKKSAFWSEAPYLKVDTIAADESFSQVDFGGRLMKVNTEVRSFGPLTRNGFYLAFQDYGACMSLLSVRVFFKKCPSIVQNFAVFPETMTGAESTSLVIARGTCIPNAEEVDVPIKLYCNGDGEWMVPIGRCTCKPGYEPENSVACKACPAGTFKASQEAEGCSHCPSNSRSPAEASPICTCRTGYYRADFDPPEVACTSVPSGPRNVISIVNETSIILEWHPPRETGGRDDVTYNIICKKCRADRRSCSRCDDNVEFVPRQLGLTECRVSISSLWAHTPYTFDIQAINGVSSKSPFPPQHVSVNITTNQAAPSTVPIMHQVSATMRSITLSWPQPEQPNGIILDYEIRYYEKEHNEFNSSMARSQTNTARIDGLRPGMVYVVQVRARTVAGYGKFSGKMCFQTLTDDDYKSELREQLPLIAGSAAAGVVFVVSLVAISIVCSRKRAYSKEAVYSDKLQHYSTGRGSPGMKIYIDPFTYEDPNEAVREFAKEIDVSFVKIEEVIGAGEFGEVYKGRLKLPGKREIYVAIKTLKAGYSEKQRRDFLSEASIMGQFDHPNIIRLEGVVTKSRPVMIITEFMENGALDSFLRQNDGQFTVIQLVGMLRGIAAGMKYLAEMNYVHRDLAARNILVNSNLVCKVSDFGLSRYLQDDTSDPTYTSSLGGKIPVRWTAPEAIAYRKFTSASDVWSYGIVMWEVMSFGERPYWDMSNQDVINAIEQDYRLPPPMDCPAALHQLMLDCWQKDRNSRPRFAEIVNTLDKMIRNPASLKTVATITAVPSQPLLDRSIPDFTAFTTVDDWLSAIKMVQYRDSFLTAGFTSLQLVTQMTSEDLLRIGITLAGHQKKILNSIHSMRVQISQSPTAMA
Hck, sequence (P08631 whole entry, looked up, the tested form may be a part): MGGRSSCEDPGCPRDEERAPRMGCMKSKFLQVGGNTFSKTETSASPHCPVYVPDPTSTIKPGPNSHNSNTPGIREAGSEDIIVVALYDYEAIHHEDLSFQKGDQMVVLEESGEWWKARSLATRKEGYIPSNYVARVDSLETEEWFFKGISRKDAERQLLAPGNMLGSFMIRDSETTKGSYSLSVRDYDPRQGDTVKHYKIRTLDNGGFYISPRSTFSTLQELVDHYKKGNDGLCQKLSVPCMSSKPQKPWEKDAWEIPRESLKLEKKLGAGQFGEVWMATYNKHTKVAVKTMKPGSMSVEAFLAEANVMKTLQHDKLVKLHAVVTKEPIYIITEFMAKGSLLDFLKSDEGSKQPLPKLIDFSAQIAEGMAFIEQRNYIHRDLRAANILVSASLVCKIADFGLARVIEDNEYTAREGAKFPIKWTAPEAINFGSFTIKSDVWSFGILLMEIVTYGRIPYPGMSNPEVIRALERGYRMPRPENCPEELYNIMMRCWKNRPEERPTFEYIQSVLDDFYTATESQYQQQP
Fyn, sequence (P06241 whole entry, looked up): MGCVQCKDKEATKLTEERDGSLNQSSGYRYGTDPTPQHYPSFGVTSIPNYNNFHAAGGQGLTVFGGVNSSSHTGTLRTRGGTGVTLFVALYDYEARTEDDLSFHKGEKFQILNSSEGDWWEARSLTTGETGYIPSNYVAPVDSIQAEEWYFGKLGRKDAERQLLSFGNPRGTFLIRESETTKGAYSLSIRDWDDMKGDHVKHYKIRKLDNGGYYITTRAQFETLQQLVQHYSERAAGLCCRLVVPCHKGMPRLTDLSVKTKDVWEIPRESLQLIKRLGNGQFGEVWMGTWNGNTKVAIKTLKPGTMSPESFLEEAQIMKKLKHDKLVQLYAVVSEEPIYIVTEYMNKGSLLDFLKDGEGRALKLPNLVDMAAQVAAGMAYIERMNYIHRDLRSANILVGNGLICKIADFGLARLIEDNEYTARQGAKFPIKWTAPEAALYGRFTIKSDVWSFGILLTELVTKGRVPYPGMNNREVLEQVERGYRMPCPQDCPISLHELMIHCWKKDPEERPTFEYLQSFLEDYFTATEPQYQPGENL

Sequence | SH2 binding enrichment (Grb2 SH2) | SH2 binding enrichment (SHP2-C SH2) | SH2 binding enrichment (c-Src SH2) | phosphorylation enrichment (AncSZ) | phosphorylation enrichment (Jak2) | phosphorylation enrichment (EPHB1) | phosphorylation enrichment (EPHB2) | phosphorylation enrichment (Fer (mouse)) | phosphorylation enrichment (Fyn) | phosphorylation enrichment (FGFR1) | phosphorylation enrichment (MERTK) | phosphorylation enrichment (FGFR3) | phosphorylation enrichment (Fes) | phosphorylation enrichment (c-Src) | phosphorylation enrichment (c-Abl (mouse)) | phosphorylation enrichment (Hck)
SQETFYRVSNM [ABCD1_Y181_Q178E_YF] | 0.836 | 0.807 | 0.597 | 0.61 | 0.7 | 0.412 | 0.528 | 0.443 | 0.396 | 0.386 | 0.448 | 0.473 | 0.763 | 0.49 | 0.86 | 0.457
RGYRQDAYDGK [HLA-A_Y140] | 1.3 | 0.458 | 0.517 | 0.773 | 0.859 | 0.519 | 0.546 | 0.764 | 0.671 | 0.641 | 0.436 | 0.509 | 0.677 | 0.526 | 0.859 | 0.591
IRSGIYFKPES [L2HGDH_Y102_H98R_YF] | 0.776 | 1.13 | 0.642 | 0.913 | 1.19 | 0.63 | 0.687 | 0.467 | 0.768 | 0.542 | 4.3 | 0.625 | 0.95 | 0.673 | 2.88 | 0.786
FFDANCDGKEF [MAPRE2_Y162_Y162C_YF] | 0.687 | 3.8 | 0.54 | 1.26 | 1.11 | 0.573 | 0.62 | 0.521 | 0.973 | 0.455 | 0.472 | 0.662 | 1.27 | 0.537 | 1.09 | 0.58
EKKDVYKTGEQ [CFH_Y1008_A1010T] | 0.771 | 0.494 | 0.376 | 0.7 | 0.437 | 0.394 | 0.411 | 0.447 | 0.471 | 0.478 | 0.382 | 0.524 | 0.663 | 0.438 | 0.42 | 0.561
QPGTDYKIYRY [FN1_Y1970_L1974R] | 0.734 | 0.791 | 0.516 | 1.02 | 0.968 | 0.383 | 0.555 | 0.618 | 0.468 | 0.583 | 0.499 | 0.882 | 0.866 | 0.527 | 0.742 | 0.468
DHTVNYVLKCR [PLEKHG4_Y1068_R1064H] | 0.67 | 0.63 | 0.346 | 1.18 | 1.09 | 0.699 | 0.677 | 0.512 | 0.479 | 0.602 | 0.419 | 0.855 | 1.38 | 0.409 | 0.859 | 0.532
LTFHMYADPNI [SOS1_Y618_F623I_YF] | 0.811 | 0.959 | 5.33 | 2.46 | 2.23 | 1.77 | 2.05 | 1.25 | 0.747 | 1.35 | 0.583 | 2.09 | 2.48 | 0.564 | 1.57 | 0.799

Second part, led by results:

SH2 binding enrichment (Grb2 SH2) | SH2 binding enrichment (SHP2-C SH2) | SH2 binding enrichment (c-Src SH2) | Sequence | phosphorylation enrichment (AncSZ) | phosphorylation enrichment (Jak2) | phosphorylation enrichment (EPHB1) | phosphorylation enrichment (EPHB2) | phosphorylation enrichment (Fer (mouse)) | phosphorylation enrichment (Fyn) | phosphorylation enrichment (FGFR1) | phosphorylation enrichment (MERTK) | phosphorylation enrichment (FGFR3) | phosphorylation enrichment (Fes) | phosphorylation enrichment (c-Src) | phosphorylation enrichment (c-Abl (mouse)) | phosphorylation enrichment (Hck)
22.6 | 1.33 | 2.66 | FLTSSYINIST [IL23R_Y178_YF] | 0.834 | 1.34 | 0.437 | 0.434 | 0.375 | 0.48 | 0.517 | 0.47 | 0.489 | 0.779 | 0.44 | 0.498 | 0.422
1.45 | 1.28 | 0.74 | PPLMLYNPTTY [EGFR_Y270] | 0.518 | 0.625 | 1 | 0.718 | 0.613 | 0.633 | 0.43 | 0.472 | 0.498 | 10.3 | 0.645 | 0.541 | 1.01
1.6 | 1.82 | 2.41 | GHMYAYDWISI [BEST1_Y227_L224M] | 2.18 | 0.798 | 3.06 | 2.54 | 14.7 | 1.89 | 8.74 | 7.82 | 6.08 | 4.88 | 1.82 | 0.739 | 2.87
0.813 | 0.805 | 0.496 | LGSWTYPKTVS [ROS1_Y144_T145P] | 0.85 | 0.734 | 0.402 | 0.432 | 0.453 | 0.741 | 0.842 | 0.664 | 0.604 | 1.12 | 0.415 | 0.732 | 0.577
0.789 | 11.9 | 1.11 | DVSVVYSEVKT [FCRL4_Y493] | 0.991 | 1.07 | 0.631 | 0.592 | 4.14 | 4.99 | 0.775 | 0.834 | 0.751 | 1.05 | 4.13 | 1.22 | 5.21
1.22 | 0.917 | 0.768 | RALLNYIASKY [GSTA3_Y74_I71L] | 0.611 | 0.8 | 0.551 | 0.521 | 0.47 | 0.678 | 0.343 | 0.509 | 0.798 | 0.959 | 0.381 | 0.578 | 0.553
